Kd and FcRn binding (%) left on spike saturated with the Fab data for 2 molecules are collected here from article PMC11852706, “Discovery of three novel neutralizing antibody epitopes on the human astrovirus capsid spike and mechanistic insights into virus neutralization” (Journal of Virology, 2025).

The target of test [1] is T1, HAstV1 capsid spike, histidine-tagged (Human astrovirus 1 (HAstV1), GenBank …).
T1 construct: also called HAstV1 spike; histidine-tagged HAstV1 spike
T1 chain: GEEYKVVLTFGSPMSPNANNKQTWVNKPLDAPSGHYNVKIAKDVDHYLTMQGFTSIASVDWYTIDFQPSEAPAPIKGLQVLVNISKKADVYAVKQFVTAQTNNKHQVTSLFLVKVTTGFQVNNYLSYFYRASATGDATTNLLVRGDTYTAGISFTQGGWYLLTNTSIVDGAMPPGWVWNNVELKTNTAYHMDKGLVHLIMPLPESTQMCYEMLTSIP
The test can be described thus: BLI; histidine-tagged HAstV1 spike (0.5 ug/mL) loaded on Anti-Penta-His (HIS1K) biosensors; Fab in solution (3H4: 2.5, 5, 10, 20 nM; 3B4: 20, 40, 80, 160 nM); Octet Kinetics Buffer (PBS pH 7.4 + 0.1% BSA + 0.02% Tween 20); association 180 s, dissociation 600 s; global 1:1 fit; average of three replicates. Particulars: both partners purified. For orientation: In BLI a coated tip is dipped into the sample, and binding shifts an interference pattern.

Test [2] addresses HAstV1 capsid spike, biotinylated (human astrovirus 1 (HAstV1)) (UniProt O12792). The test is described as follows: BLI; competition: biotinylated HAstV1 spike (0.5 ug/mL) on streptavidin biosensors, saturated with 150 nM Fab 3H4 or 250 nM Fab 3B4 for 600 s, then dipped into 2 uM FcRn for 300 s; Octet Kinetics Buffer; FcRn shift normalised to FcRn on spike without Fab (100%) and to self-Fab control (0%); triplicate.

B1: Fab 3H4 (Fab, V domains shown)
VH: QVQLKESGPGLVAPSQSLSISCTVSGFSLTTFGIHWIRQPPGKGLEWLGVIWAAGTTNYNSTLKSRLTITKDNSRSQVFLKMNSLQTYDTAIYYCVREDYDYFFGLDYWGQGTSVTVSS
VL: QAVVTQESALTTSPGETVTLTCRSSTGAVTTSNYASWVQEKPDHLFIGLIGGTNNRAPGVPARFSGSLIGDKAALTITGAQTDDEAIYFCALWFSNHWVFGGGTKLTVL
notes: source: CHO-S, electroporated, purified from supernatant (StrepTrap HP)
As a reminder, the Kd is the concentration at which binding is half-saturated. As to B1, in test [1], the Kd was determined as 0.49 nM. Further, the FcRn binding (%) left on spike saturated with the Fab in test [2] was 4%.

B2: Fab 3B4 (Fab, V domains shown)
VH: QVQLHQPGAELVKPGASVNLSCKASGYTFTSYWMHWVKQRPGQGLEWIGEINPSSGRANYNEKFKNKATLTVDKSSITAYMHLSSLTSEDSAVYYCHWDYYAMDYWGQGTSVTVSS
VL: DIVLTQSPATLSVTPGDSVSLSCRASQSISNNLHWYQQKSHESPRLLFKSASQSISGIPSRFSGSGSGTDFTLSINSVETEDFGMYFCQQTNSWPLTFGTGTKLDLK
notes: as for B1
Consider B2, for which, in test [1], the Kd was found to be 11.8 nM. In test [2], the FcRn binding (%) left on spike saturated with the Fab came out at 40%.
